Tests used:
Test in all cases: IEDB peptide-MHC binding, purified MHC/competitive/radioactivity; filed as Kd, often an IC50 or EC50 that approximates it; ≥ and ≤ were set here for values at or beyond the usual limits of such assays
HLA-A*33:01 = biological target: HLA-A*33:01
HLA-A*03:01 = biological target: HLA-A*03:01
HLA-A*31:01 = biological target: HLA-A*31:01
HLA-A*68:01 = biological target: HLA-A*68:01
HLA-A*11:01 = biological target: HLA-A*11:01
[1] = source organism: SARS coronavirus Tor2
[2] = source organism: Dengue virus 2 Jamaica/1409/1983
[3] = source organism: Dengue virus 3 Martinique/1243/1999
[4] = source organism: Dengue virus 2 Peru/IQT2913/1996
[5] = source organism: Vaccinia virus WR
[6] = source organism: Dengue virus 4 Philippines/H241/1956
[7] = source organism: Mammarenavirus guanaritoense

Sequence | Kd (HLA-A*33:01; [1]) [nM] | Kd (HLA-A*03:01; [1]) [nM] | Kd (HLA-A*31:01; [1]) [nM] | Kd (HLA-A*68:01; [1]) [nM] | Kd (HLA-A*11:01; [1]) [nM] | further results
GVAPGTAVLR | ≥ 41900 | 1320 | 2850 | 43.2 | 165 | –
GLLLRKLTSK | – | – | – | – | – | Kd (HLA-A*03:01; [2]): 39.6 nM
KSGAIKVLK | – | – | – | – | – | Kd (HLA-A*03:01; [3]): 104 nM; Kd (HLA-A*31:01; [3]): 8.84 nM; Kd (HLA-A*11:01; [3]): 150 nM
SMFEPEREK | – | – | – | – | – | Kd (HLA-A*03:01; [2]): 83.6 nM; Kd (HLA-A*11:01; [2]): 1140 nM
RMLINRFTMR | – | – | – | – | – | Kd (HLA-A*33:01; [4]): 162 nM; Kd (HLA-A*03:01; [4]): 86.6 nM; Kd (HLA-A*31:01; [4]): 14.3 nM
STTDAEACY | – | – | – | – | – | Kd (HLA-A*33:01; [5]): 17400 nM; Kd (HLA-A*03:01; [5]): ≥ 47800 nM; Kd (HLA-A*31:01; [5]): ≥ 75400 nM; Kd (HLA-A*68:01; [5]): 163 nM; Kd (HLA-A*11:01; [5]): 432 nM
NSCSIGNVTR | – | – | – | – | – | Kd (HLA-A*33:01; [5]): 16.1 nM; Kd (HLA-A*03:01; [5]): ≥ 70100 nM; Kd (HLA-A*31:01; [5]): 34.1 nM; Kd (HLA-A*68:01; [5]): 6.73 nM; Kd (HLA-A*11:01; [5]): 890 nM
DLVKSSFVKK | – | – | – | – | – | Kd (HLA-A*33:01; [5]): 281 nM; Kd (HLA-A*03:01; [5]): 156 nM; Kd (HLA-A*31:01; [5]): 169 nM; Kd (HLA-A*68:01; [5]): 1130 nM; Kd (HLA-A*11:01; [5]): 177 nM
QLPQGTTLPK | ≥ 37000 | 52.5 | 8640 | 317 | 396 | –
LILCFTIKR | 7030 | 1400 | 9010 | 1410 | 231 | –
VLDMCAALK | 13600 | 17.6 | 2350 | 2520 | 44.9 | –
ACQEAVKLK | – | – | – | – | – | Kd (HLA-A*33:01; source organism: Mammarenavirus juninense): ≥ 77700 nM
KQMYKTPTLK | 11400 | 2.31 | 95.3 | 8220 | 17.5 | –
SLLGSALLK | – | – | – | – | – | Kd (HLA-A*03:01; [6]): 3.47 nM; Kd (HLA-A*11:01; [6]): 21.3 nM
KQIRSAAKK | ≥ 77700 | 43.1 | 1080 | 1330 | 73.7 | –
VYTQLCDHR | – | – | – | – | – | Kd (HLA-A*33:01; [3]): 1900 nM
SICSTMTNR | 42 | 864 | 1.08 | 46.4 | 13 | –
DENKWKSAR | – | – | – | – | – | Kd (HLA-A*33:01; [2]): 306 nM
GALDTTSYR | 1400 | 6600 | 86.5 | 68.4 | 26.3 | –
LSYVIGLLPH | – | – | – | – | – | Kd (HLA-A*33:01; [7]): ≥ 70000 nM; Kd (HLA-A*03:01; [7]): 2260 nM; Kd (HLA-A*31:01; [7]): 8940 nM; Kd (HLA-A*68:01; [7]): ≥ 70100 nM; Kd (HLA-A*11:01; [7]): ≥ 35800 nM
DLIKKSDAK | – | – | – | – | – | Kd (HLA-A*33:01; [5]): 6630 nM; Kd (HLA-A*03:01; [5]): ≥ 38000 nM; Kd (HLA-A*31:01; [5]): ≥ 77900 nM; Kd (HLA-A*68:01; [5]): 2160 nM; Kd (HLA-A*11:01; [5]): ≥ 31300 nM
